Assay results taken from article PMC13426413 (Science Advances, 2026).

Target: human Hsp90α (residues 1–732) (human, UniProt P07900 1-732)
Test: ITC

B1: Tom70:Orf9b_(Helix) complex (complex)
chain 1: MNSLDRAQAAKNKGNKYFKAGKYEQAIQCYTEAISLCPTEKNVDLSTFYQNRAAAFEQLQKWKEVAQDCTKAVELNPKYVKALFRRAKAHEKLDNKKECLEDVTAVCILEGFQNQQSMLLADKVLKLLGKEKAKEKYKNREPLMPSPQFIKSYFSSFTDDIISQPMLKGEKSDEDKDKEGEALEVKENSGYLKAKQYMEEENYDKIISECSKEIDAEGKYMAEALLLRATFYLLIGNANAAKPDLDKVISLKEANVKLRANALIKRGSMYMQQQQPLLSTQDFNMAADIDPQNADVYHHRGQLKILLDQVEEAVADFDECIRLRPESALAQAQKCFALYRQAYTGNNSSQIQAAMKGFEEVIKKFPRCAEGYALYAQALTDQQQFGKADEMYDKCIDLEPDNATTYVHKGLLQLQWKQDLDRGLELISKAIEIDNKCDFAYETMGTIEVQRGNMEKAIDMFNKAINLAKSEMEMAHLYSLCDAAHAQTEVAKKYGLKPPTL
chain 2: IILRLGSPLSLNMARKTLNSLEDKAFQLTPIAVQY
binding result: binds
